Laboratory results reported in patent publication US20120322725A1 (INDIANA UNIVERSITY RESEARCH AND TECHNOLOGY, published 2012).
Values joined by “and” are separate entries in the source; they are usually repeats but may differ in a detail not shown here. Equal values may be shown once. Read-outs that look alike come from different tables or passages of the source. Square brackets hold non-standard residues; d marks the D form. Ends that are not written are not given here. * marks the point of attachment. MCA = alpha-methylhydrocinnamic acid (2-methyl-3-phenylpropanoic acid); PLA = 3-phenyllactic acid (2-hydroxy-3-phenylpropanoic acid); PhLac = O=C(O)[C@@H](O)Cc1ccccc1; Carboxymethyl = O=C(O)C*

Assays:
[1] = molecular target: T1, glucagon receptor (UniProt P47871 26-477, limits assumed); assay: cell-based or functional assay
T1 sequence (P47871 26-477 limits assumed): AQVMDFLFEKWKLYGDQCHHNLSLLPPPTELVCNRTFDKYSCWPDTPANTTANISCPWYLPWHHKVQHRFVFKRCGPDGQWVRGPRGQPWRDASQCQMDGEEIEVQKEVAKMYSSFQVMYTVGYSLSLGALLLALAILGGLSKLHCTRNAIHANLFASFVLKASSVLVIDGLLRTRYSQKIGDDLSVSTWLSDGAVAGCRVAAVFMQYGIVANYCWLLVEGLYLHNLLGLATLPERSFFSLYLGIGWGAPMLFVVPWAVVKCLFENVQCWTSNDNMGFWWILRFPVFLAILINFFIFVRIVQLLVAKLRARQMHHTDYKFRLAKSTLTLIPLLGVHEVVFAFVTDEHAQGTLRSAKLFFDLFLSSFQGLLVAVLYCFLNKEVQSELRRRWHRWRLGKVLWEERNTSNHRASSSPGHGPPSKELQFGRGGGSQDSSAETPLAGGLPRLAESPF

[2] = molecular target: T1, glucagon receptor; assay: receptor binding, method not described
[3] = molecular target: T1, glucagon receptor; assay: cell-based or functional assay; remark: listed apart in the source
[4] = molecular target: T1, glucagon receptor; assay: receptor binding (named so for the same values in Table I), method not described
[5] = molecular target: T1, glucagon receptor; assay: cell-based or functional assay; remark: listed apart in the source
[6] = molecular target: T1, glucagon receptor; assay: receptor binding, method not described; remark: listed apart in the source
[7] = molecular target: T1, glucagon receptor; assay: cell-based or functional assay; remark: listed apart in the source
[8] = molecular target: T1, glucagon receptor; assay: receptor binding, method not described; remark: listed apart in the source

## C(PEG 3.4 kDa)FTSEYSKYLDSRRAQDFVQWLMNT-NH2 (also: dimer: two chains joined by 3.4 kDa PEG at Cys5) [3.4kDaPEG-dimer[C5, E9]Glucagon(aa5-29)-NH2]
[1]
  IC50(nM) (cAMP, inhibit 0.2 mM Glucagon): 1340 nM
[2]
  IC50: 0.435 µM

## {PLA}-TC(PEG 1.2 kDa)EYSKYLDSRRAQDFVQWLMNT-NH2 [[PLA6, C8(1.2kDaPEG), E9]Glucagon(aa6-29)-NH2]
[2]
  IC50: 0.22 µM

## {PLA}-TC(PEG 5 kDa)EYSKYLDSRRAQDFVQWLMNT-NH2 [[PLA6, C8(5kDaPEG), E9]Glucagon(aa6-29)-NH2]
[1]
  IC50(nM) (cAMP, inhibit 0.2 mM Glucagon): 216 nM
[2]
  IC50: 0.948 µM

## {PLA}-TSEYSKYLDSRRAQDFVC(PEG 1.2 kDa)WLMNT-NH2 [[PLA6, E9,C24(1.2 kDaPEG)]Glucagon(aa6-29)-NH2]
[1]
  IC50(nM) (cAMP, inhibit 0.2 mM Glucagon): 18 nM
[2]
  IC50: 0.0047 µM

## C(PEG 20 kDa)FTSEYSKYLDSRRAQDFVQWLMNT-NH2 [[C5(20kDaPEG), E9]Glucagon(aa5-29)-NH2]
[1]
  IC50(nM) (cAMP, inhibit 0.2 mM Glucagon): 976 nM
[2]
  IC50: 0.331 µM

## C(PEG 1.2 kDa)FTSEYSKYLDSRRAQDFVQWLMNT-NH2 [[C5(1.2kDaPEG), E9]Glucagon(aa5-29)-NH2]
[1]
  IC50(nM) (cAMP, inhibit 0.2 mM Glucagon): 2280 nM
[2]
  IC50: 1.08 µM

## C(PEG 5 kDa)FTSEYSKYLDSRRAQDFVQWLMNT-NH2 [[C5(5kDaPEG), E9]Glucagon(aa5-29)-NH2]
[1]
  IC50(nM) (cAMP, inhibit 0.2 mM Glucagon): 1610 nM
[2]
  IC50: 0.634 µM

## FTSDYSKYLDSRRAQDFVQWLMNT-NH2 (also called peptide no) [Glucagon(aa6-29)-NH2]
[3]
  cAMP IC50: 0.346 µM
  cAMP pA2: 6.94
[4]
  IC50: 1.89 µM
[5]
  cAMP (I/A)50: 1730
  cAMP pA2: 6.94
[6]
  IC50: 1.67 µM

B1: [Lys^9]Glucagon(aa6-29)-NH2 (peptide)
peptide: FTSKYSKYLDSRRAQDFVQWLMNT-NH2
notes: also called [K^9]Glucagon(aa6-29)-NH2; peptide no
[3]
  cAMP IC50: 0.398 µM
  cAMP pA2: 6.58
[4]
  IC50: 5.78 µM
[5]
  cAMP (I/A)50: 1990
  cAMP pA2: 6.58
[6]
  IC50: 3.24 µM

B2: [(CSA-1)^9]Glucagon(aa6-29)-NH2 (peptide)
peptide: FTSC(Carboxymethyl)YSKYLDSRRAQDFVQWLMNT-NH2
modifications: N-terminus assumed
SMILES: CSCC[C@H](NC(=O)[C@H](CC(C)C)NC(=O)[C@H](Cc1c[nH]c2ccccc12)NC(=O)[C@H](CCC(N)=O)NC(=O)[C@@H](NC(=O)[C@H](Cc1ccccc1)NC(=O)[C@H](CC(=O)O)NC(=O)[C@H](CCC(N)=O)NC(=O)[C@H](C)NC(=O)[C@H](CCCNC(=N)N)NC(=O)[C@H](CCCNC(=N)N)NC(=O)[C@H](CO)NC(=O)[C@H](CC(=O)O)NC(=O)[C@H](CC(C)C)NC(=O)[C@H](Cc1ccc(O)cc1)NC(=O)[C@H](CCCCN)NC(=O)[C@H](CO)NC(=O)[C@H](Cc1ccc(O)cc1)NC(=O)[C@H](CSCC(=O)O)NC(=O)[C@H](CO)NC(=O)[C@@H](NC(=O)[C@@H](N)Cc1ccccc1)[C@@H](C)O)C(C)C)C(=O)N[C@@H](CC(N)=O)C(=O)N[C@H](C(N)=O)[C@@H](C)O
notes: also called [C^9(SCH2COOH)]Glucagon(aa6-29)-NH2; peptide no
[3]
  cAMP IC50: 0.101 µM
  cAMP pA2: 6.68
[4]
  IC50: 0.107 µM
[5]
  cAMP (I/A)50: 506
  cAMP pA2: 6.68
[6]
  IC50: 0.107 µM

B3: [(CSA-2)^9]Glucagon(aa6-29)-NH2 (peptide)
peptide: FTSCYSKYLDSRRAQDFVQWLMNT
HELM: PEPTIDE1{F.T.S.[O=C(O)CCSC[C@H](N[*:1])C(=O)[*:2]].Y.S.K.Y.L.D.S.R.R.A.Q.D.F.V.Q.W.L.M.N.T.[am]}$$$$V2.0; N-terminus assumed
SMILES: CSCC[C@H](NC(=O)[C@H](CC(C)C)NC(=O)[C@H](Cc1c[nH]c2ccccc12)NC(=O)[C@H](CCC(N)=O)NC(=O)[C@@H](NC(=O)[C@H](Cc1ccccc1)NC(=O)[C@H](CC(=O)O)NC(=O)[C@H](CCC(N)=O)NC(=O)[C@H](C)NC(=O)[C@H](CCCNC(=N)N)NC(=O)[C@H](CCCNC(=N)N)NC(=O)[C@H](CO)NC(=O)[C@H](CC(=O)O)NC(=O)[C@H](CC(C)C)NC(=O)[C@H](Cc1ccc(O)cc1)NC(=O)[C@H](CCCCN)NC(=O)[C@H](CO)NC(=O)[C@H](Cc1ccc(O)cc1)NC(=O)[C@H](CSCCC(=O)O)NC(=O)[C@H](CO)NC(=O)[C@@H](NC(=O)[C@@H](N)Cc1ccccc1)[C@@H](C)O)C(C)C)C(=O)N[C@@H](CC(N)=O)C(=O)N[C@H](C(N)=O)[C@@H](C)O
notes: also called [C^9(SCH2CH2COOH)]Glucagon(aa6-29)-NH2; peptide no
[3]
  cAMP IC50: 0.116 µM
  cAMP pA2: 6.64
[4]
  IC50: 0.146 µM
[5]
  cAMP (I/A)50: 580
  cAMP pA2: 6.64
[6]
  IC50: 0.146 µM

B4: [hGlu^9]Glucagon(aa6-29)-NH2 (peptide)
peptide: FTSXYSKYLDSRRAQDFVQWLMNT
HELM: PEPTIDE1{F.T.S.[O=C(O)CCC[C@H](N[*:1])C(=O)[*:2]].Y.S.K.Y.L.D.S.R.R.A.Q.D.F.V.Q.W.L.M.N.T.[am]}$$$$V2.0; N-terminus assumed
SMILES: CSCC[C@H](NC(=O)[C@H](CC(C)C)NC(=O)[C@H](Cc1c[nH]c2ccccc12)NC(=O)[C@H](CCC(N)=O)NC(=O)[C@@H](NC(=O)[C@H](Cc1ccccc1)NC(=O)[C@H](CC(=O)O)NC(=O)[C@H](CCC(N)=O)NC(=O)[C@H](C)NC(=O)[C@H](CCCNC(=N)N)NC(=O)[C@H](CCCNC(=N)N)NC(=O)[C@H](CO)NC(=O)[C@H](CC(=O)O)NC(=O)[C@H](CC(C)C)NC(=O)[C@H](Cc1ccc(O)cc1)NC(=O)[C@H](CCCCN)NC(=O)[C@H](CO)NC(=O)[C@H](Cc1ccc(O)cc1)NC(=O)[C@H](CCCC(=O)O)NC(=O)[C@H](CO)NC(=O)[C@@H](NC(=O)[C@@H](N)Cc1ccccc1)[C@@H](C)O)C(C)C)C(=O)N[C@@H](CC(N)=O)C(=O)N[C@H](C(N)=O)[C@@H](C)O
notes: also called [hE^9]Glucagon(aa6-29)-NH2; peptide no
[3]
  cAMP IC50: 0.472 µM
  cAMP pA2: 6.27
[4]
  IC50: 0.163 µM
[5]
  cAMP (I/A)50: 2360
  cAMP pA2: 6.27
[6]
  IC50: 0.163 µM

## [MCA]TSEYSKYLDSRRAQDFVC(maleimido methoxyPEG 20 kDa)WLMNT-NH2 [[MCA6, E9, C24(20kDaPEG)]Glucagon(aa6-29)-NH2]
[2]
  IC50: 0.208 µM

## [PhLac]TC(maleimido methoxyPEG 20 kDa)EYSKYLDSRRAQDFVQWLMNT-NH2 [[PLA6, C8(20kDaPEG), E9]Glucagon(aa6-29)-NH2]
[1]
  IC50(nM) (cAMP, inhibit 0.2 mM Glucagon): 236 nM and 92 nM
[2]
  IC50: 0.303 µM

## [PhLac]TSEYC(maleimido methoxyPEG 20 kDa)KYLDSRRAQDFVQWLMNT-NH2 [[PLA6, E9, C11(20kDaPEG)]Glucagon(aa6-29)-NH2]
[1]
  IC50(nM) (cAMP, inhibit 0.2 mM Glucagon): 664 nM
[2]
  IC50: 0.776 µM

## [PhLac]TSEYSKYLDSRRAQDFVC(maleimido methoxyPEG 20 kDa)WLMNT-NH2 [[PLA6, E9, C24(20kDaPEG)]Glucagon(aa6-29)-NH2]
[1]
  IC50(nM) (cAMP, inhibit 0.2 mM Glucagon): 126 nM
[2]
  IC50: 0.09 µM

## SQGTFTSEYSKYLDSRRAQDFVQFLLNT-NH2 [[desHis^1, Glu^9, Phe^25, Leu^27]Glucagon-NH2]
[7]
  cAMP Induction EC50: 0.081 µM
[8]
  IC50: 0.0126 µM

## SQLTFTSEYSKYLDSRRAQDFVQWLMNT-NH2 (also called Cmpd) [[desHis^1, Leu^4, Glu^9]Glucagon-NH2]
[7]
  cAMP Induction EC50: 0.318 µM
  cAMP Inhibition IC50: 0.102 µM
[8]
  IC50: 0.0369 µM

## SQGTTSDYSKYLDSRRAQDFVQWLMNT-NH2 (also called Cmpd) [[desHis^1, desPhe^6]Glucagon-NH2]
[7]
  cAMP Induction EC50: 1.18 µM
[8]
  IC50: 0.13 µM

## LTFTSEYSKYLDSRRAQDFVQWLMNT-NH2 (also called peptide no) [[Leu^4, Glu^9]Glucagon(aa4-29)-NH2]
[4]
  IC50: 0.0364 µM

B5: [desHis^1, Leu^4, hCys^9(SO3^-), Phe^25, Leu^27]Glucagon-NH2 (peptide)
peptide: SQLTFTSXYSKYLDSRRAQDFVQFLLNT
HELM: PEPTIDE1{S.Q.L.T.F.T.S.[O=C([C@H](CCS(=O)(=O)O)N[*:1])[*:2]].Y.S.K.Y.L.D.S.R.R.A.Q.D.F.V.Q.F.L.L.N.T.[am]}$$$$V2.0; N-terminus assumed
SMILES: CC(C)C[C@H](NC(=O)[C@H](Cc1ccc(O)cc1)NC(=O)[C@H](CCCCN)NC(=O)[C@H](CO)NC(=O)[C@H](Cc1ccc(O)cc1)NC(=O)[C@H](CCS(=O)(=O)O)NC(=O)[C@H](CO)NC(=O)[C@@H](NC(=O)[C@H](Cc1ccccc1)NC(=O)[C@@H](NC(=O)[C@H](CC(C)C)NC(=O)[C@H](CCC(N)=O)NC(=O)[C@@H](N)CO)[C@@H](C)O)[C@@H](C)O)C(=O)N[C@@H](CC(=O)O)C(=O)N[C@@H](CO)C(=O)N[C@@H](CCCNC(=N)N)C(=O)N[C@@H](CCCNC(=N)N)C(=O)N[C@@H](C)C(=O)N[C@@H](CCC(N)=O)C(=O)N[C@@H](CC(=O)O)C(=O)N[C@@H](Cc1ccccc1)C(=O)N[C@H](C(=O)N[C@@H](CCC(N)=O)C(=O)N[C@@H](Cc1ccccc1)C(=O)N[C@@H](CC(C)C)C(=O)N[C@@H](CC(C)C)C(=O)N[C@@H](CC(N)=O)C(=O)N[C@H](C(N)=O)[C@@H](C)O)C(C)C
[7]
  cAMP Induction EC50: 1.61 µM
  cAMP Inhibition IC50: 4.46 µM
